Assay results taken from paper PMC10925001 (2024).

Target: covalently-linked IL-2/SD-01 complex (human, UniProt P60568 21-153)
Test: SPR

B1: his-tagged human IL-2Rα (receptor)
chain: ELCDDDPPEIPHATFKAMAYKEGTMLNCECKRGFRRIKSGSLYMLCTGNSSHSSWDNQCQCTSSATRNTTKQVTPQPEEQKERKTTEMQSPMQPVDQASLPGHCREPPPWENEATERIYHFVVGQMVYYQCVQGYRALHRGPAESVCKMTHGKTRWTQPQLICTGEMETSQFPGEEKPQASPEGRPESETSCLVTTTDFQIQTEMAATMETSIFTTEYQ
B1 was tested. Which koff did it give?
Its koff is 0.0048 s⁻¹.
